Laboratory results as given in article PMC8183676 (Molecular cell, 2020).

Key:
Assay in all cases: native gel or EMSA
[1] = target: T1, MDA5ΔN (human, UniProt Q9BYX4 287-1025)
T1 sequence (looked up): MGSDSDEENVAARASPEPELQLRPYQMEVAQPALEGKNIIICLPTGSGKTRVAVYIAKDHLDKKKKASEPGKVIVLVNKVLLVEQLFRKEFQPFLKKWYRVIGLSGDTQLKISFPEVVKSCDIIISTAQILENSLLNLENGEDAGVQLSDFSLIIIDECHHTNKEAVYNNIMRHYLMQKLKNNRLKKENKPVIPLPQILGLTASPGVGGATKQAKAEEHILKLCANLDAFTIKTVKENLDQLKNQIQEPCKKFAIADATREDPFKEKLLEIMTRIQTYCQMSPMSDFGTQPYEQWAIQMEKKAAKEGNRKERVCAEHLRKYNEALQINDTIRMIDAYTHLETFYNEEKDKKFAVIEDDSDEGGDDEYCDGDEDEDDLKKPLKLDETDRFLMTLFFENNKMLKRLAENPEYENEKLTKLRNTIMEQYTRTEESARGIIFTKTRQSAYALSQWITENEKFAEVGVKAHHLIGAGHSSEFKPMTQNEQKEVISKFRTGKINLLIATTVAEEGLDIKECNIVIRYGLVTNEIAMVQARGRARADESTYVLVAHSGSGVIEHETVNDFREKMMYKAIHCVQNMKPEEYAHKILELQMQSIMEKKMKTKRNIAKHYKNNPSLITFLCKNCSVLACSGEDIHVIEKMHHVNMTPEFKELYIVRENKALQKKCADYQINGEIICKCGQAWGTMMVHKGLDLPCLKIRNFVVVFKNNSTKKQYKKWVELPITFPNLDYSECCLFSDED

[2] = target: T2, full-length MDA5, fluorescein-labelled (human, UniProt Q9BYX4 1-1025, fluorescein-conjugated peptide (LPETGG) joined to the N-terminus with sortase A)
T2 sequence (looked up): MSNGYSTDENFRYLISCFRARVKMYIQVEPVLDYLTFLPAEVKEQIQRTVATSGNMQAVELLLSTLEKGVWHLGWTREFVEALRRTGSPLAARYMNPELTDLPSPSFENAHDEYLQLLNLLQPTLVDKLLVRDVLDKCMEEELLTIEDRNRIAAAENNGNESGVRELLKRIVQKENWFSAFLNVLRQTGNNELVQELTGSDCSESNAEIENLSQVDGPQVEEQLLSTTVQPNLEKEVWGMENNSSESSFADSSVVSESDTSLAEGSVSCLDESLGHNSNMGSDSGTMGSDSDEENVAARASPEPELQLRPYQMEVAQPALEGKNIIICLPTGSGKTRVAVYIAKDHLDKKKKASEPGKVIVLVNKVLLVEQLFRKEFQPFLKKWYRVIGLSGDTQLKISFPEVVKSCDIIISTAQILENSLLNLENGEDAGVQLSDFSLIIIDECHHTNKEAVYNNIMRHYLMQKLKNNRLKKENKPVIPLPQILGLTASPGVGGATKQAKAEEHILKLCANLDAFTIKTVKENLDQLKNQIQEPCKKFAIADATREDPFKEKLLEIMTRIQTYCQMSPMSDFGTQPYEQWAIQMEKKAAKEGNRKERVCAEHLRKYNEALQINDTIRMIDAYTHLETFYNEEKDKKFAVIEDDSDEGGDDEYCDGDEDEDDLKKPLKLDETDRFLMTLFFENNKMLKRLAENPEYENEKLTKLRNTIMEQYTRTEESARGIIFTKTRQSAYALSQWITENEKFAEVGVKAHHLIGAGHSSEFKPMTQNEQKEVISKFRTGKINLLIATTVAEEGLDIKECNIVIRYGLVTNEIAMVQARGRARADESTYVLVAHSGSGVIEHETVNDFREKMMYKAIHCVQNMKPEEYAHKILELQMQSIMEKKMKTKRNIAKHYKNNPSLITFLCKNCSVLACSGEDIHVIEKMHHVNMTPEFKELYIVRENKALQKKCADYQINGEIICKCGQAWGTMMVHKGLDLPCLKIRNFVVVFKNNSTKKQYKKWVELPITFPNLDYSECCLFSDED

[3] = target: T3, MDA5ΔN, fluorescein-labelled (human, UniProt Q9BYX4 287-1025, fluorescein-conjugated peptide (LPETGG) joined to the N-terminus with sortase A)
T3 sequence (looked up): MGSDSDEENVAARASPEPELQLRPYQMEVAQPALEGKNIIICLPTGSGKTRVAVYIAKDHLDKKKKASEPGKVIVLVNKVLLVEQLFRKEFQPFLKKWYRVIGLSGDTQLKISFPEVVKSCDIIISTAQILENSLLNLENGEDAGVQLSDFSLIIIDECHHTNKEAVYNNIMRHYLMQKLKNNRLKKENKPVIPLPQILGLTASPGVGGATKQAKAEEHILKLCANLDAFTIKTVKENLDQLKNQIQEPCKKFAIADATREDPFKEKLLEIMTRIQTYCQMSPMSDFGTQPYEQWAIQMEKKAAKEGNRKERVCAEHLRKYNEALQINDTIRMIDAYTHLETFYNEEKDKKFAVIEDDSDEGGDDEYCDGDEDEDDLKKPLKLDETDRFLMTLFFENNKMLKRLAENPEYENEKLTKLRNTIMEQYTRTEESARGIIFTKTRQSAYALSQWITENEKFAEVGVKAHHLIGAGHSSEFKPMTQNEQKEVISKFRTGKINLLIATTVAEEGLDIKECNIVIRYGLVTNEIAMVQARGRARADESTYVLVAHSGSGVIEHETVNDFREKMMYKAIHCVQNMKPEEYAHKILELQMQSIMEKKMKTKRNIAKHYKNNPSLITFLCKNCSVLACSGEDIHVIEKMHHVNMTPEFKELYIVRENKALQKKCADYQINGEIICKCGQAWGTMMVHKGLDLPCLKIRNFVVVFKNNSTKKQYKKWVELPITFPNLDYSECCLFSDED

[4] = target: T4, GST-MDA5ΔN (human, UniProt Q9BYX4 287-1025)
T4 sequence (looked up): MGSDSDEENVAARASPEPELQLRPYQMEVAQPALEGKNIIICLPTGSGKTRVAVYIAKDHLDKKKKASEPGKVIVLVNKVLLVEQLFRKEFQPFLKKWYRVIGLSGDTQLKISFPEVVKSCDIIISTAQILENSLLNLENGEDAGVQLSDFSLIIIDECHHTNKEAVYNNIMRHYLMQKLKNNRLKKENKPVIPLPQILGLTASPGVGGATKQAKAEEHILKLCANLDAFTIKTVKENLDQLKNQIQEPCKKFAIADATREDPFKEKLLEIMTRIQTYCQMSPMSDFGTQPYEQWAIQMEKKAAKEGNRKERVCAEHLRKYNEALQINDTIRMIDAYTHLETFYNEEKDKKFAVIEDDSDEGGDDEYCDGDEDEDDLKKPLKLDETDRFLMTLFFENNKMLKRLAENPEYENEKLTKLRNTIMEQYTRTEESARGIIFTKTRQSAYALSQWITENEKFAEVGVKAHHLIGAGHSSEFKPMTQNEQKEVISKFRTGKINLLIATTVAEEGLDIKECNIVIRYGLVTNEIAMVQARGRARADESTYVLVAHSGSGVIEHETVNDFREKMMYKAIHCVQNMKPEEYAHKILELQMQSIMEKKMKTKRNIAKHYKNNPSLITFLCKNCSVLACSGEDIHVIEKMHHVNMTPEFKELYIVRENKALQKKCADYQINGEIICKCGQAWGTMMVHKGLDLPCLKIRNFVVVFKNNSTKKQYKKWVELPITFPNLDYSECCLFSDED

[5] = target: T5, LGP2 (human, UniProt Q96C10 1-678)
T5 sequence (looked up): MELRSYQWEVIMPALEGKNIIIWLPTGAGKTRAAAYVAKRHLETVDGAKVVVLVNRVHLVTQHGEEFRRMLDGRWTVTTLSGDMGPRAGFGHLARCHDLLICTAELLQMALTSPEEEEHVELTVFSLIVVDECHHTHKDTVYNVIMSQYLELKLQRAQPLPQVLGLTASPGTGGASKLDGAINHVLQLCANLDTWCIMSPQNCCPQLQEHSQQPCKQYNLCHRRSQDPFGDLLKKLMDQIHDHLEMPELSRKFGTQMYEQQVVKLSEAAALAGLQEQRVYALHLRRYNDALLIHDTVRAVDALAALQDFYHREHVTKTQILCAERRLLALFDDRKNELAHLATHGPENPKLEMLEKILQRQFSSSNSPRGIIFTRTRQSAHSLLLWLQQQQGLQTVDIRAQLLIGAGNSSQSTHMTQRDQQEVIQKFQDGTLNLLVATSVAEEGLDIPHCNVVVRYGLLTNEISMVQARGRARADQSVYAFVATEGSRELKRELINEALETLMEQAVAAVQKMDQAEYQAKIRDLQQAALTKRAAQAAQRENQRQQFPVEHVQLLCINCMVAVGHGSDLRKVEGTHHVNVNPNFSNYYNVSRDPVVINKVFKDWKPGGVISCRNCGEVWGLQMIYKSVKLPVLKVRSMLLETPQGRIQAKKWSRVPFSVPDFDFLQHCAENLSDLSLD

B1: TRIM65 (natural protein, human, UniProt Q6PJ69 1-517, looked up)
chain: MAAQLLEEKLTCAICLGLYQDPVTLPCGHNFCGACIRDWWDRCGKACPECREPFPDGAELRRNVALSGVLEVVRAGPARDPGPDPGPGPDPAARCPRHGRPLELFCRTEGRCVCSVCTVRECRLHERALLDAERLKREAQLRASLEVTQQQATQAEGQLLELRKQSSQIQNSACILASWVSGKFSSLLQALEIQHTTALRSIEVAKTQALAQARDEEQRLRVHLEAVARHGCRIRELLEQVDEQTFLQESQLLQPPGPLGPLTPLQWDEDQQLGDLKQLLSRLCGLLLEEGSHPGAPAKPVDLAPVEAPGPLAPVPSTVCPLRRKLWQNYRNLTFDPVSANRHFYLSRQDQQVKHCRQSRGPGGPGSFELWQVQCAQSFQAGHHYWEVRASDHSVTLGVSYPQLPRCRLGPHTDNIGRGPCSWGLCVQEDSLQAWHNGEAQRLPGVSGRLLGMDLDLASGCLTFYSLEPQTQPLYTFHALFNQPLTPVFWLLEGRTLTLCHQPGAVFPLGPQEEVLS
[1]
  binding result: binds
[2]
  binding result: binds
[3]
  binding result: binds

B2: TRIM65 CC-PSpry, fluorescein-labelled (domain or fragment, human, UniProt Q6PJ69 125-517, looked up)
chain: HERALLDAERLKREAQLRASLEVTQQQATQAEGQLLELRKQSSQIQNSACILASWVSGKFSSLLQALEIQHTTALRSIEVAKTQALAQARDEEQRLRVHLEAVARHGCRIRELLEQVDEQTFLQESQLLQPPGPLGPLTPLQWDEDQQLGDLKQLLSRLCGLLLEEGSHPGAPAKPVDLAPVEAPGPLAPVPSTVCPLRRKLWQNYRNLTFDPVSANRHFYLSRQDQQVKHCRQSRGPGGPGSFELWQVQCAQSFQAGHHYWEVRASDHSVTLGVSYPQLPRCRLGPHTDNIGRGPCSWGLCVQEDSLQAWHNGEAQRLPGVSGRLLGMDLDLASGCLTFYSLEPQTQPLYTFHALFNQPLTPVFWLLEGRTLTLCHQPGAVFPLGPQEEVLS
modifications: fluorescein-conjugated peptide (LPETGG) joined to the N-terminus with sortase A
[4]
  binding result: binds

B3: GST-TRIM14^PSpry (domain or fragment, human, UniProt Q14142 238-442, looked up)
chain: QLSDPSSTKPGTLLKTSPSPERSLLLKYARTPTLDPDTMHARLRLSADRLTVRCGLLGSLGPVPVLRFDALWQVLARDCFATGRHYWEVDVQEAGAGWWVGAAYASLRRRGASAAARLGCNRQSWCLKRYDLEYWAFHDGQRSRLRPRDDLDRLGVFLDYEAGVLAFYDVTGGMSHLHTFRATFQEPLYPALRLWEGAISIPRLP
[5]
  binding result: binds
